Broadly, the Km is the concentration of substrate that gives half-maximal velocity.

Km data for two proteins are collected here from publication PMC3017772, “The CaaX specificities of Arabidopsis protein prenyltransferases explain era1 and ggb phenotypes” (BMC Plant Biology, 2010).

Common to all, as to test: radiometric filter prenylation assay, Lineweaver-Burk
Holding throughout (format): biochemical, Arabidopsis thaliana

Substrate in data set [1]: CC(C)=CCC/C(C)=C/CC/C(C)=C/CO[P@@](=O)(O)OP(=O)(O)O
To be noted: co-substrate GFP-BD-CVIL, 50 mM Hepes pH 7.5, 20 mM MgCl2, 5 mM ZnCl2, 5 mM DTT, 0.1% Zwittergent, 30°C, labelled compound. The source says:
(§1) radiometric filter prenylation assay, Lineweaver-Burk on PGGT1 (protein geranylgeranyltransferase type 1; PGGT I; PLP + GGB)

Substrate in data set [2]: CC(C)=CCC/C(C)=C/CC/C(C)=C/CC/C(C)=C/COP(=O)(O)OP(=O)(O)O
The settings on record: co-substrate GFP-BD-CVIL, 50 mM Hepes pH 7.5, 20 mM MgCl2, 5 mM ZnCl2, 5 mM DTT, 0.1% Zwittergent, 30°C, labelled compound.
From the text: as §1

Substrate in data set [3]: CC(C)=CCC/C(C)=C/CC/C(C)=C/CO[P@@](=O)(O)OP(=O)(O)O
The settings on record: co-substrate GFP-BD-CVIQ, 50 mM Hepes pH 7.5, 20 mM MgCl2, 5 mM ZnCl2, 5 mM DTT, 0.1% Zwittergent, 30°C, labelled compound. The source says:
(§2) radiometric filter prenylation assay, Lineweaver-Burk on PFT (protein farnesyltransferase; PLP + ERA1)

Substrate in data set [4]: CC(C)=CCC/C(C)=C/CC/C(C)=C/CC/C(C)=C/COP(=O)(O)OP(=O)(O)O
To be noted: co-substrate GFP-BD-CVIQ, 50 mM Hepes pH 7.5, 20 mM MgCl2, 5 mM ZnCl2, 5 mM DTT, 0.1% Zwittergent, 30°C, labelled compound.
From the text: as §2

B1: PGGT1 (protein geranylgeranyltransferase type 1; PGGT I; PLP + GGB) (Arabidopsis thaliana) (protein)
chain 1: SETAVSIDSDRSKSEEEDEEEYSPPVQSSPSANFEKDRHLMYLEMMYELLPYHYQSQEINRLTLAHFIISGLHFLGARDRVDKDVVAKWVLSFQAFPTNRVSLKDGEFYGFFGSRSSQFPIDENGDLKHNGSHLASTYCALAILKVIGHDLSTIDSKSLLISMINLQQDDGSFMPIHIGGETDLRFVYCAAAICYMLDSWSGMDKESAKNYILNCQSYDGGFGLIPGSESHGGATYCAIASLRLMGYIGVDLLSNDSSSSIIDPSLLLNWCLQRQANDGGFQGRTNKPSDTCYAFWIGAVLKLIGGDALIDKMALRKFLMSCQSKYGGFSKFPGQLPDLYHSYYGYTAFSLLEEQGLSPLCPELGLPLLAAPGI
chain 2: not shown
notes: alpha/beta heterodimer co-expressed in E. coli Rosetta (pETDuet-1); N-terminal FLAG on PLP, N-terminal 6xHis on GGB (MHHHHHH-SETAVSI from primer), tags kept; Co2+-IMAC purified
On to B1, for which the Km in data set [1] came out at 0.6 ± 0.5 µM; in data set [2], 0.8 ± 0.1 µM.

B2: PFT (protein farnesyltransferase; PLP + ERA1) (Arabidopsis thaliana) (protein)
chain 1: PVVTRLIRLKCVGLRLDRSGLNRRICHGGHGESTRRRVMEELSSLTVSQREQFLVENDVFGIYNYFDASDVSTQKYMMEIQRDKQLDYLMKGLRQLGPQFSSLDANRPWLCYWILHSIALLGETVDDELESNAIDFLGRCQGSEGGYGGGPGQLPHLATTYAAVNALVTLGGDKALSSINREKMSCFLRRMKDTSGGFRMHDMGEMDVRACYTAISVASILNIMDDELTQGLGDYILSCQTYEGGIGGEPGSEAHGGYTYCGLAAMILINEVDRLNLDSLMNWAVHRQGVEMGFQGRTNKLVDGCYTFWQAAPCVLLQRLYSTNDHDVHGSSHISEGTNEEHHAHDEDDLEDSDDDDDSDEDNDEDSVNGHRIHHTSTYINRRMQLVFDSLGLQRYVLLCSKIPDGGFRDKPRKPRDFYHTCYCLSGLSVAQHAWLKDEDTPPLTRDIMGGYSNLLEPVQLLHNIVMDQYNEAIEFFFKAA
chain 2: not shown
notes: alpha/beta heterodimer co-expressed in E. coli Rosetta (pETDuet-1); N-terminal FLAG on PLP, N-terminal 6xHis on ERA1 (MHHHHHH-PVVTRLI from primer), tags kept; Co2+-IMAC purified
As to B2, the Km in data set [3] was determined as 0.2 ± 0.1 µM; in data set [4], 0.7 ± 0.3 µM.
